# Legend:
# [1] = Solution stability of the 90Y-labeled conjugate in ascorbic acid buffer, RCP by HPLC (Method 1); format: physicochemical; settings: for RCP (radiochemical purity): 0.1 M ascorbic acid buffer pH 5.0
# Experimental: (§1) The integrity of a radiopharmaceutical is measured by the radiochemical purity (RCP) of the radiolabeled compound using ITLC or more preferably HPLC. The advantage of using HPLC is that radio-impurities caused by radiolytic degradation can be separated from the radiopharmaceutical under optimized chromatographic conditions. […] The radiopharmaceutical compositions of this invention are effective in maintaining the long-term stability of samples that have been frozen, thawed, and re-tested up to 5 days post-labeling.
# (§2) The initial RCP of a radiopharmaceutical is largely dependent on radiolabeling conditions such as pH, heating temperature and time. Once a radiopharmaceutical is prepared in high yield, the ability of an antioxidant to stabilize a radiopharmaceutical composition is measured by the RCP change over a certain period of time.
# as §1, with “periodically for” for “up to”, “days.” for “days post-labeling.”
# as §2, with “stability” for “ability”, “the” for “an antioxidant to stabilize a”, “change of the radiopharmaceutical” for “change”
# Analytical Methods. HPLC method 1 used a HP-1100 HPLC system with a UV/visible detector (Δ=220 nm), an IN-US radio-detector, and a Zorbax C18 column (4.6 mm×250 mm, 80 A pore size). The flow rate was 1 mL/min with the mobile phase starting with 92% solvent A (0.025 M ammonium acetate buffer, pH 6.8) and 8% solvent B (acetonitrile) to 90% solvent A and […] at 18 min, followed by an isocratic wash using 40% of solvent A and 60% solvent B from 19 to 25 min.
# (2S)-2-[({2,6-Dimethyl-4-[3-(N-{2-[3-sulfo-2-(3-sulfo-2-{2-[1,4,7,10-tetraaza-4,7,10-tris(carboxymethyl) cyclododecyl]acetylamino}propyl)propyl]ethyl}carbamoyl)-propoxy]phenyl}sulfonyl)amino]-3-({7-[(imidazol-2-ylamino)methyl]-1-methyl-4-oxo(3-hydroquinolyl)}-carbonylamino)propanoic acid trifluoroacetate was prepared as disclosed in U.S. patent application Ser. No. 09/456,300 and was subsequently dissolved in 0.1 M AA buffer (pH 5.0) to give a concentration of 100 μg/mL. The resulting solution was immediately degassed under vacuum for another 1-2 min. To a clean sealed 5 mL vial was added 5.0 mL of 0.1 M ascorbic acid buffer (pH 5.0) containing 500 μg of (2S)-2-[({2,6-Dimethyl-4-[3-(N-{2-[3-sulfo-2-(3-sulfo-2-{2-[1,4,7,10-tetraaza-4,7,10-tris(carboxymethyl) cyclododecyl]acetylamino}propyl) propyl]ethyl}carbamoyl)propoxy]phenyl}sulfonyl)amino]-3-({7-[(imidazol-2-ylamino)methyl]-1-methyl-4-oxo(3-hydroquinolyl)}carbonylamino)propanoic acid trifluoroacetate. The solution was degassed again under vacuum. Upon addition of ˜75 μL of ^90YCl3 solution (101.5 mCi) in 0.05 N HCl, the reaction mixture was heated at 95° C. for 30 min. After cooling to room temperature, a sample of the resulting solution was diluted 50-fold with saline containing sodium gentisate (10 mg/mL), and was then analyzed by HPLC (Method 1, injection volume 5 μL). The resulting mixture was then kept in a dry-ice box (−78° C.) for 5 days. Samples were analyzed at t=0 (RCP=98.5%), 24 h (RCP=98.4%), 68 h (RCP=98.0%), and 120 h (RCP=98.8%). The retention time was 14.8 min.
# [2] = Solution stability of the 111In-labeled conjugate in ascorbic acid buffer, RCP by HPLC (Method 3); format: physicochemical; settings: for RCP (radiochemical purity): 0.1 M ascorbic acid buffer pH 6.0
# Experimental: The integrity of a radiopharmaceutical is measured by the radiochemical purity (RCP) of the radiolabeled compound using ITLC or more preferably HPLC. The advantage of using HPLC is that radio-impurities caused by radiolytic degradation can be separated from the radiopharmaceutical under optimized chromatographic conditions. […] The radiopharmaceutical compositions of this invention are effective in maintaining the long-term stability of samples that have been frozen, thawed, and re-tested up to 5 days post-labeling. The initial RCP of a radiopharmaceutical is largely dependent on radiolabeling conditions such as pH, heating temperature and time. Once a radiopharmaceutical is prepared in high yield, the ability of an antioxidant to stabilize a radiopharmaceutical composition is measured by the RCP change over a certain period of time. The integrity of a radiopharmaceutical is measured by the radiochemical purity (RCP) of the radiolabeled compound using ITLC or more preferably HPLC. The advantage of using HPLC is that radio-impurities caused by radiolytic degradation can be separated from the radiopharmaceutical under optimized chromatographic conditions. […] The radiopharmaceutical compositions of this invention are effective in maintaining the long-term stability of samples that have been frozen, thawed, and re-tested periodically for 5 days. The initial RCP of a radiopharmaceutical is largely dependent on radiolabeling conditions such as pH, heating temperature and time. Once a radiopharmaceutical is prepared in high yield, the stability of the radiopharmaceutical composition is measured by the RCP change of the radiopharmaceutical over a certain period of time. HPLC method 3 used a HP-1100 HPLC system with a UV/visible detector (k=220 nm), an IN-US radio-detector, and a Zorbax C18 column (4.6 mm×250 mm, 80 A pore size). […] After cooling to room temperature, a sample of the resulting solution was then analyzed by HPLC (Method 3, injection volume=10 μL). […] Samples were analyzed at t 0 (RCP 98.2%) and 24 h (RCP=97.6%). […]
# [3] = 5 mL AA solution containing 100 mg AA, pH=5.0
Substance,"RCP while stable over at least 5 days [1, 3] [%]","remains stable (time) [1, 3]","RCP (radiochemical purity) ([1]; 24 h, kept in dry-ice box (-78° C.)) [%]","RCP (radiochemical purity) ([1]; 68 h, kept in dry-ice box (-78° C.)) [%]","RCP (radiochemical purity) ([1]; 120 h, kept in dry-ice box (-78° C.)) [%]","RCP (radiochemical purity) ([1]; t=0, 100 mCi 90Y) [%]","remains stable in solution (time) ([2]; 0.1 M ascorbic acid buffer pH 6.0, room temperature)","RCP (radiochemical purity) ([2]; 24 h, kept at room temperature) [%]","RCP (radiochemical purity) ([2]; t 0, 2.8 mCi 111In) [%]"
"^90Y-(2S)-2-[({2,6-Dimethyl-4-[3-(N-{2-[3-sulfo-2-(3-sulfo-^2-{^2-[1,4,7,10-tetraaza-4,7,10-tris(carboxymethyl) cyclododecyl]acetylamino}--propyl)propyl]ethyl}carbamoyl)-propoxy]phenyl}sulfonyl)amino]-^3-({^7-[(imidazol-2-ylamino)methyl]-1-methyl-4-oxo(3-hydroquinolyl)}-carbonylamino)propanoic acid trifluoroacetate [Example 2]",> 96,at least 5 days,98.4,98.0,98.8,98.5,,,
"^111In-(2S)-2-[({2,6-Dimethyl-4-[3-(N-{2-[3-sulfo-2-(3-sulfo-2-{2-[1,4,7,10-tetraaza-4,7,10-tris(carboxymethyl) cyclododecyl]acetylamino}--propyl)propyl]ethyl}carbamoyl)-propoxy]phenyl}sulfonyl)amino]-3-({7-[(imidazol-2-ylamino)methyl]-1-methyl-4-oxo(3-hydroquinolyl)}-carbonylamino)propanoic acid trifluoroacetate [Example 3]",,,,,,,at least 24 hours,97.6,98.2

# Source: patent US6713042B2, “Ascorbic acid analogs for metalloradiopharmaceuticals” (Bristol-Myers Squibb Pharma Company, priority 2001, dated 2004)
